Experimental data: publication PMC11874658, “CmHRE2L-CmACS6 transcriptional cascade negatively regulates waterlogging tolerance in Chrysanthemum”

Target: CmHRE2-like (CmHRE2L) (UniProt A0AA96PUJ9 1-225)
Assay: EMSA; LightShift Chemiluminescent EMSA Kit (Thermo Fisher); buffer, salt, pH and temperature not stated
Settings: protein: recombinant; tags: GST (pGEX4T-1, N-terminal); label: biotin

Chain of CmHRE2-like (CmHRE2L) (A0AA96PUJ9 entry or part of it): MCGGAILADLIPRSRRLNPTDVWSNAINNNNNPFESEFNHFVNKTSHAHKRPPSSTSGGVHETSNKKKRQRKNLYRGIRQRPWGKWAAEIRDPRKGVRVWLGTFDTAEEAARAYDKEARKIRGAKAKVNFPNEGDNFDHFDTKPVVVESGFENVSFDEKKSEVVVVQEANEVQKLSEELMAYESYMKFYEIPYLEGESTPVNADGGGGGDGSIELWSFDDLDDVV

B1: Biotin-mP, probe with mutated cis-element 3 (dsDNA)
DNA 1: ACCTTCATATGCATGAAAAAAAAATTTTCCACTCAACA
DNA 2: TGTTGAGTGGAAAATTTTTTTTTCATGCATATGAAGGT
  binding result: no binding
